This test concerns the target CXCR5 (human; form in the assay not stated) (UniProt P32302). In words: side-by-side comparison; method not stated.

B1: Mouse anti-hCXCR5 mAb clone 16D7 (antibody, V domains shown)
VH: QVQLKESGPGLVAPSQSLSITCTVSGFSLIDYGVNWIRQPPGKGLEWLGVIWGDGTTYYNSALKSRLSIRKDNSQSQVFLKMNSLQTDDTAMYYCARIVYWGQGTLVTVSA
VL: DIVMTQAAPSVAVTPRESVSISCRSSKSLLHSSGKTYLYWFLQRPGQSPQLLIYRMSNLASGVPDRFSGSGSGTAFTLRISRVEAEDVGVYYCMQHLEYPYTFGGGTKLEIK
In turn, B1 had a fold higher affinity than the commercial antibodies of 10 fold and an off rate, times better than the other antibodies of 100 times.

The values above are taken from patent publication US20130251714A1.
